The values below come from patent publication US20190153097A1.

The target of the assay is Cynomolgus/Rhesus CTLA-4 (cynomolgus/rhesus). Briefly: ELISA with Cynomolgus/Rhesus CTLA-4 titrated (said to be similar to the mouse CTLA-4 ELISA with coated antibodies). A general note: In an ELISA, binding on a coated surface is turned into a signal by an enzyme label.

“ipilimumab (human anti-huCTLA-4 marketed as Yervoy) (antibody)”: the EC50 (read off the curve) – broadly, the concentration giving half of the maximal effect – turned out to be 0.2 nM.
